Assays:
[1] = molecular target: SARS-CoV-2 N501Y+D614G mutant pseudovirus spike (spikeΔ19) (SARS-CoV-2, UniProt P0DTC2 14-1254); assay: cell-based or functional assay
[2] = molecular target: SARS-CoV-2 K417N+E484K+N501Y+D614G mutant pseudovirus spike (spikeΔ19) (SARS-CoV-2, UniProt P0DTC2 14-1254); assay: cell-based or functional assay
[3] = molecular target: SARS-CoV-2 B.1.617.2 pseudovirus spike (SARS-CoV-2); assay: cell-based or functional assay
B.1.351 S-RBD [4] = molecular target: T1, B.1.351 S-RBD (SARS-CoV-2, UniProt P0DTC2 319-541); assay: BLI (Octet RED96), biotin B.1.351 S-RBD on SA sensor, 1:1 fit
T1 construct: also called spike RBD of B.1.351 (Beta Strain)

B.1.351 S-RBD [5] = molecular target: T1, B.1.351 S-RBD; assay: BLI (Octet RED96), biotinylated B.1.351 S-RBD on SA biosensor, 1:1 binding model
[6] = molecular target: wild-type SARS-CoV-2 pseudovirus spike (spikeΔ19) (SARS-CoV-2, UniProt P0DTC2 14-1254); assay: cell-based or functional assay

Binder	NT50, N501Y+D614G spike pseudovirus neutralization [1]	NT50 (B.1.351) (nM), pseudovirus neutralization [2]	NT50 (B.1.617.2) (nM), pseudovirus neutralization [3]	Kd (B.1.351 S-RBD [4])	Kd (B.1.351 S-RBD [5])	NT50, wild-type SARS-CoV-2 pseudovirus neutralization [6]
S-B8 (antibody, V domains shown, also called S-B8 dimer) VH: QVQLVQSGGGLIQPGGSLRLSCAASGFTVSLSHMNWVRQAPGKGLEWVSITYGDGNSDYADSVKGRFTISRDNSKNTLYLQMNSLRAEDTAVYYCAREYYYGMDVWGQGTTVTVSS VL: not shown	0.53 nM	1.2 nM	0.37 nM	–	–	–
S-E6 trimer (T4F) (other, also called trimer S-E6; trimeric S-E6) heavy: QVTLRESGPGLVKPSETLSLTCAVSGGSLSSVNYYWSWIRQHPGKGLEWIGYIYYSGSTNYNPSLKSRVTMSLDTSKNQFSLKLSSVTAADTAVYYCATPGAIMGALHIWGQGTLVTVSSASTKGPSVFPLAPSSKSTSGGTAALGCLVKDYFPEPVTVSWNSGALTSGVHTFPAVLQSSGLYSLSSVVTVPSSSLGTQTYICNVNHKPSNTKVDKKVEPPKSGGGGSGGGGSGGGGSPGSGYIPEAPRDGQAYVRKDGEWVLLSTFLGHHHHHH light: QAVLTQPSSASSTPGQRVIISCSGSSSNIGSNTVSWYQQVPGAAPKLLIYFDYRRPSGVPDRFSGTRSGTSASLGISGLQSEDEADYYCAAWDDSLSAWVFGRGTKLTVLGGLGGLVDYKGQPKAAPSVTLFPPSSEELQANKATLVCLISDFYPGAVTVAWKADSSPVKAGVETTTPSKQSNNKYAASSYLSLTPEQWKSHRSYSCQVTHEGSTVEKTVAPTECS	–	–	0.007 nM	0.58 nM	0.576 nM	–
S-E6 (antibody, V domains shown, also called S-E6 dimer; dimer S-E6) VH: QVTLRESGPGLVKPSETLSLTCAVSGGSLSSVNYYWSWIRQHPGKGLEWIGYIYYSGSTNYNPSLKSRVTMSLDTSKNQFSLKLSSVTAADTAVYYCATPGAIMGALHIWGQGTLVTVSS VL: QAVLTQPSSASSTPGQRVIISCSGSSSNIGSNTVSWYQQVPGAAPKLLIYFDYRRPSGVPDRFSGTRSGTSASLGISGLQSEDEADYYCAAWDDSLSAWVFGRGTKLTVLG	0.021 nM	0.32 nM	0.065 nM	–	–	0.025 nM
S-B8 trimer (other) heavy: QVQLVQSGGGLIQPGGSLRLSCAASGFTVSLSHMNWVRQAPGKGLEWVSITYGDGNSDYADSVKGRFTISRDNSKNTLYLQMNSLRAEDTAVYYCAREYYYGMDVWGQGTTVTVSSASTKGPSVFPLAPSSKSTSGGTAALGCLVKDYFPEPVTVSWNSGALTSGVHTFPAVLQSSGLYSLSSVVTVPSSSLGTQTYICNVNHKPSNTKVDKKVEPPKSGGGGSGGGGSGGGGSPGSGYIPEAPRDGQAYVRKDGEWVLLSTFLGHHHHHH light: not shown	–	0.35 nM	0.15 nM	–	–	–
S-D4 (antibody, V domains shown, also called S-D4 dimer; S-D4 IgG4) VH: QVQLQESGGGVVQPGRSLRLSCEVSGFTFSDYGMHWVRQAPGKGLEWVAVIWSEGSTEYYADSVKGRFTISRDNSKDTLYLQMNSLRAEDTAVYYCARPGYPTSTDRSPAAAGARQYYYYGMDVWGQGTTVTVSS VL: NFMLTQPHSVSESPGKTVTISCTRSGGSGAANYVQWYQQRPGSSPTTLIYEDSRRPPGVPDRFSGSVDTSSNSASLTISGLQTEDEADYYCQSYDSSNHVVFGGGTKLTVLG	0.042 nM	0.66 nM	0.24 nM	–	–	0.48 nM

— patent US20220213176A1 (SHANGHAITECH UNIVERSITY, published 2022)
